Earlier results in article PMC4463550.
Blank lines part the entries; values can stand above or below the substance they belong to.

Experiments:
[1] = molecular target: His471 (UniProt position 471, WLSVGHVDEFL); details: PAD4; state not stated
[2] = molecular target: Cys645 (UniProt position 645, HGEVHCGTNVR); assay: chemical modification; details: PAD4, no substrate; calcium state not stated
[3] = molecular target: PAD4 (Homo sapiens) (UniProt Q9UM07)
[4] = molecular target: Cys647 (UniProt position 647, LGEVHCGTNVR); assay: chemical modification; details: calcium state not stated

Sequence of PAD4 (Q9UM07 whole entry): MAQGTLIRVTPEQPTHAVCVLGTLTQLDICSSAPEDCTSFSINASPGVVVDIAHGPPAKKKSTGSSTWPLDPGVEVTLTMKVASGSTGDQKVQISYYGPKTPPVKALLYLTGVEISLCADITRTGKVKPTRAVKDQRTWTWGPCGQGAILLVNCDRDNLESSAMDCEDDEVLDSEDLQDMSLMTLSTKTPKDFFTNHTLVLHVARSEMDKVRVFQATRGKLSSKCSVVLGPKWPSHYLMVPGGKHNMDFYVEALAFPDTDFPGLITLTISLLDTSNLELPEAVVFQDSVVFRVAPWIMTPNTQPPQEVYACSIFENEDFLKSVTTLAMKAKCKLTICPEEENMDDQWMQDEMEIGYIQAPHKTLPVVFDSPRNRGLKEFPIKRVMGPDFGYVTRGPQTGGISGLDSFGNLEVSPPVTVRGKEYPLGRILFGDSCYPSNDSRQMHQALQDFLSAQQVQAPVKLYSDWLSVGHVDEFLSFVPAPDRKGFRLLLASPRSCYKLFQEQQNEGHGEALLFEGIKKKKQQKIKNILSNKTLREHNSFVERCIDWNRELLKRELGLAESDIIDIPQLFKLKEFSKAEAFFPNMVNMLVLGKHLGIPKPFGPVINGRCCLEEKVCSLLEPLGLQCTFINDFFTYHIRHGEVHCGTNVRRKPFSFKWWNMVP

Substance: Protein arginine deiminase 4 (PAD4) (Homo sapiens)
pKa [1]: ∼7.3 | pKa [2]: ≈ 8.3

Kd [3]: 450 nM
Substance: PAD4 (from UniProt Q9UM07)

Substance: Protein arginine deiminase 2 (PAD2) (Homo sapiens)
pKa ([4]; PAD2, no substrate): 8.2 | pKa ([4]; PAD2 reacting with the substrate-mimicking, positively charged inactivator 2-chloroacetamidine): 7.2
